Target: purified RecBCD protein (Plasmid-Safe ExoV, Epicentre) (E. coli) (UniProt P08394)
Assay: cell-based or functional assay

Sequence of UniProt P08394 (P08394 2-1180 limits assumed, chain 1 of 3): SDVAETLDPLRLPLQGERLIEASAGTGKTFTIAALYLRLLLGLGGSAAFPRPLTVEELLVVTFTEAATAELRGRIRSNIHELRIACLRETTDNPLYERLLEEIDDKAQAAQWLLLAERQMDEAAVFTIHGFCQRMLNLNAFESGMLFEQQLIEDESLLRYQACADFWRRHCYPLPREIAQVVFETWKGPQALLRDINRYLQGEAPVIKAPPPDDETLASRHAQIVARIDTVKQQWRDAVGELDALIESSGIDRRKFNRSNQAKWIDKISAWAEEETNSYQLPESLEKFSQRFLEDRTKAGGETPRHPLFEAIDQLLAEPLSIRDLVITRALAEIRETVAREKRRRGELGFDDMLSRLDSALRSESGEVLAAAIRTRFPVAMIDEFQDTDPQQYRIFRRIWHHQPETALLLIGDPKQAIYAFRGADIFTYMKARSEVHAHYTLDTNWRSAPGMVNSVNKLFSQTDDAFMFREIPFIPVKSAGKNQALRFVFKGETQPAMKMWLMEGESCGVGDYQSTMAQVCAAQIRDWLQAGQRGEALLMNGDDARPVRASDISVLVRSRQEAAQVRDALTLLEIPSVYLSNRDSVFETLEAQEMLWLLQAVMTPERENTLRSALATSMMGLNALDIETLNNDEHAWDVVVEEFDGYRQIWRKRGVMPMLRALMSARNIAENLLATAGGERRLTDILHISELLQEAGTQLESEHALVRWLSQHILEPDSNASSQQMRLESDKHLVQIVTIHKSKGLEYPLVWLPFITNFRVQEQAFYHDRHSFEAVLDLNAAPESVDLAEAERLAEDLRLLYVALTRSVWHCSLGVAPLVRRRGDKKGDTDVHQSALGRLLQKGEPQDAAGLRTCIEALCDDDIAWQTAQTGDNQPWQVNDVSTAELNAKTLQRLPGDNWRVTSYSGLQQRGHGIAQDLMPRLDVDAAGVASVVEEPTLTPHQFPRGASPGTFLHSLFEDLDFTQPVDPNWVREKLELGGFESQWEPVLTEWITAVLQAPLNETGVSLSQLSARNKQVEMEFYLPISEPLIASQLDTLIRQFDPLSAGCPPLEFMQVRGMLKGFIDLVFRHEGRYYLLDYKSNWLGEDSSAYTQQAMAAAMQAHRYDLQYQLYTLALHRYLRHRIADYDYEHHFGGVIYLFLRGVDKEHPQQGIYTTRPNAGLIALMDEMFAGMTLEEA
Sequence of UniProt P08394 (P07648 whole entry, chain 2 of 3, further chain): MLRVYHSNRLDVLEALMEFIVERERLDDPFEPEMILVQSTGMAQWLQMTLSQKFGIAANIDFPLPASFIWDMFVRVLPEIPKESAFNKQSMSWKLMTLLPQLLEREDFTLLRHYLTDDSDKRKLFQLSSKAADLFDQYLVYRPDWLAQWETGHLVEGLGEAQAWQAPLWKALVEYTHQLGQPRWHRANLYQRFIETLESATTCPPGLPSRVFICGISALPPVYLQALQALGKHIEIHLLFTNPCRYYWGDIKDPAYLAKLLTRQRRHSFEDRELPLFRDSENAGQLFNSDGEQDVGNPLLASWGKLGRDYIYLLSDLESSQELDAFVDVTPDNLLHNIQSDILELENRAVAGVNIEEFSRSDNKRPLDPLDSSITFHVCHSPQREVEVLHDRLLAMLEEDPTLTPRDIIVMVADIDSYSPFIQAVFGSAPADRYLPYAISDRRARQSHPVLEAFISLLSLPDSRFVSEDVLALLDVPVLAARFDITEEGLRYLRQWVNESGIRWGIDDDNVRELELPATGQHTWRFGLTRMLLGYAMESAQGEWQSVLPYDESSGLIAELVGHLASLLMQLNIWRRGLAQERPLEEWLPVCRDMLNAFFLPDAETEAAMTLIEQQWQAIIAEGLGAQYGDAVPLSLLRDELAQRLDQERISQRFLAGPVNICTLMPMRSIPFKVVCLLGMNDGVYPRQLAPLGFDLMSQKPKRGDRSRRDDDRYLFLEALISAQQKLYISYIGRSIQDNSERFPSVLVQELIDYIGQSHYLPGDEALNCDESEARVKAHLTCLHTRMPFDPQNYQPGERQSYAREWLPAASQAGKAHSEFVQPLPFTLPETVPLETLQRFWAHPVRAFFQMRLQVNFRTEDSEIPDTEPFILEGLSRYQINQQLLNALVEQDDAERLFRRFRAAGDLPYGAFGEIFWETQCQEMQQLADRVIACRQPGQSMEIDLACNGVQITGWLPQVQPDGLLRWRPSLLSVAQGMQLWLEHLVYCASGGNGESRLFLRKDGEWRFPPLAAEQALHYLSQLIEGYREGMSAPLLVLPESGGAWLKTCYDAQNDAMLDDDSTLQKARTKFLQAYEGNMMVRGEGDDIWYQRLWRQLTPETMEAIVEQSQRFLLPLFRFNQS
Sequence of UniProt P08394 (P04993 whole entry, chain 3 of 3, further chain): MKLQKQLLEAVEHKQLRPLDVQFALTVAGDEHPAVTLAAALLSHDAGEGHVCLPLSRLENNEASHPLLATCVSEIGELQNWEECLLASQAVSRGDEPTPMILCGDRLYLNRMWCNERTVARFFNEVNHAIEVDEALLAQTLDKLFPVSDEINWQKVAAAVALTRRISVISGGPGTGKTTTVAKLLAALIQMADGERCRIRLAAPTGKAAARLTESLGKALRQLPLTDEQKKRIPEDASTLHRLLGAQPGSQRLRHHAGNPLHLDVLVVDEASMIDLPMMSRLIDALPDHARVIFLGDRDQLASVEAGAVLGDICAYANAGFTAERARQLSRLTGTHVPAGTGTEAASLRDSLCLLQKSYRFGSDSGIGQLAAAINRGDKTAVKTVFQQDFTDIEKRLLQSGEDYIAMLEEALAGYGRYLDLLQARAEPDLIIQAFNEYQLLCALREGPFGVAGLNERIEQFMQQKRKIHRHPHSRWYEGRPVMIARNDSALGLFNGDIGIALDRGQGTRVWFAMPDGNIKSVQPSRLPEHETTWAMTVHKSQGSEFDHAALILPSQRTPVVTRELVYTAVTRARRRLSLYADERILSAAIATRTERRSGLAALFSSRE

Substance: GamS (short form of the bacteriophage lambda Gam protein, expressed from pLDE136, partially purified MonoQ pool) (from UniProt P03702 1-98)
- specific activity of GamS in the Gam-mediated RecBCD inhibition assay: 160 to 200 U/µg
